Laboratory results published in PMC4864540, “Isolation and Characterization of a Broad Spectrum Bacteriocin from Bacillus amyloliquefaciens RX7” (BioMed Research International, 2016).

Key:
[1] = test system: L. monocytogenes ATCC 19114; test: pH stability of antimicrobial activity; type: physicochemical, Listeria monocytogenes; conditions: for Residual activity (%): 2 h at 37°C, residual activity against L. monocytogenes ATCC 19114
Procedure: (§1) To evaluate pH stability, the pH of crude bacteriocin solution was adjusted with 1 N HCl and 1 N NaOH and readjusted to pH 7 after incubation for 2 h at 37°C. To evaluate thermal stability, the crude bacteriocin solution was incubated at 4, 37, 50, 80, and 100°C for 15–30 minutes. All samples were cooled to room temperature before activity assays. To analyze sensitivity to various enzymes, the crude bacteriocin solution was treated at 37°C for 2 h with 10 mg/mL (final concentration) of the following enzymes: α-amylase, α-chymotrypsin, lipase, proteinase-K, pepsin, or trypsin. All enzymes used were from Sigma (USA) and Takara (Japan). The samples were then boiled for 2 min to denature the enzymes and cooled to room temperature. Samples were exposed to various organic solvents at a final concentration of 10% (v/v) to explore their effects on bacteriocin activity. After incubation for 2 h at 37°C, the residual activity was recorded. All treated samples were tested for residual activity against L. monocytogenes ATCC 19114, as described above.

α-amylase = test: Effect of enzyme treatment on antimicrobial activity; type: in vitro ADME; conditions: α-Amylase 10 mg/mL, 37°C, 2 h, then boiled 2 min; residual antimicrobial activity vs before treatment, against L. monocytogenes ATCC 19114
Procedure: as §1

trypsin = test: as above; type: in vitro ADME; conditions: Trypsin 10 mg/mL, 37°C, 2 h, then boiled 2 min; residual antimicrobial activity vs before treatment, against L. monocytogenes ATCC 19114
Procedure: as §1

α-chymotrypsin = biological target: T1, α-chymotrypsin (Bos taurus, UniProt P00766); test: as above; type: in vitro ADME; conditions: α-Chymotrypsin 10 mg/mL, 37°C, 2 h, then boiled 2 min; residual antimicrobial activity vs before treatment, against L. monocytogenes ATCC 19114
T1 construct: purchased Sigma (USA) and Takara (Japan)
Procedure: as §1

proteinase-K = biological target: T2, proteinase-K (Parengyodontium album, UniProt P06873); test: as above; type: in vitro ADME; conditions: Proteinase-K 10 mg/mL, 37°C, 2 h, then boiled 2 min; residual antimicrobial activity vs before treatment, against L. monocytogenes ATCC 19114
T2 construct: purchased Sigma (USA) and Takara (Japan)
Procedure: as §1

pepsin = biological target: T3, pepsin (Sus scrofa, UniProt P00791); test: as above; type: in vitro ADME; conditions: Pepsin 10 mg/mL, 37°C, 2 h, then boiled 2 min; residual antimicrobial activity vs before treatment, against L. monocytogenes ATCC 19114
T3 construct: purchased Sigma (USA) and Takara (Japan)
Procedure: as §1

lipase = test: as above; type: in vitro ADME; conditions: Lipase 10 mg/mL, 37°C, 2 h, then boiled 2 min; residual antimicrobial activity vs before treatment, against L. monocytogenes ATCC 19114
Procedure: as §1

[2] = test system: L. monocytogenes ATCC 19114; test: Thermal stability of antimicrobial activity; type: physicochemical, Listeria monocytogenes; conditions: cooled to room temperature, residual activity vs before treatment, against L. monocytogenes ATCC 19114
Procedure: as §1

[3] = test system: L. monocytogenes ATCC 19114; test: Effect of organic solvents on antimicrobial activity; type: physicochemical, Listeria monocytogenes; conditions: 2 h at 37°C, residual activity against L. monocytogenes ATCC 19114
Procedure: as §1

T2 sequence (P06873 106-384): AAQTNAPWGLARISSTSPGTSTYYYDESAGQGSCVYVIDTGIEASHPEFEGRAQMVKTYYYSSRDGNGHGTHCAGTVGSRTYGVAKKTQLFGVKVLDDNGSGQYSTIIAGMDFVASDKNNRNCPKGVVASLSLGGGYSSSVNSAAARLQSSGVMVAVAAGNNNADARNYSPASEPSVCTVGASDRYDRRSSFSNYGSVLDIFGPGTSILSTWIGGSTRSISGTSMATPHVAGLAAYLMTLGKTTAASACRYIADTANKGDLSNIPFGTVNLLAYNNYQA
T3 sequence (P00791 60-385): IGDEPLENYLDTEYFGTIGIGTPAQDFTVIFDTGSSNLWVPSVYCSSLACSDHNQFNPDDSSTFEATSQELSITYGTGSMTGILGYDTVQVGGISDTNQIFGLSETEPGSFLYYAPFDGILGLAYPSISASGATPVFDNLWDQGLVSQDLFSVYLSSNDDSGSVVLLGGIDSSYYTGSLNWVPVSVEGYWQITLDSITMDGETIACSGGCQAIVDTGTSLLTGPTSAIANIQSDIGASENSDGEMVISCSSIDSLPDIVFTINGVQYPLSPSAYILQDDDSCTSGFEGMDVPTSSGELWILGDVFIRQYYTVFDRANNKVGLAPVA

NH2-X-Ala-Trp-Tyr-Asp-Ile-Arg-Lys-Leu-Gly-Asn-Lys-Gly-Ala [RX7 bacteriocin, Bacteriocin of approximately 5 kDa produced by Bacillus amyloliquefaciens RX7; homologous to lantibiotic haloduracin A1]
pH range in which full activity was observed ([1]; 2 h at 37°C at the given pH, readjusted to pH 7, activity against L. monocytogenes ATCC 19114): 3–8
Residual activity (%) ([1]; pH 1 (1 N HCl/1 N NaOH), readjusted to pH 7): 80%
Residual activity (%) ([1]; pH 2 (1 N HCl/1 N NaOH), readjusted to pH 7): 90%
Residual activity (%) ([1]; pH 3 (1 N HCl/1 N NaOH), readjusted to pH 7): 100%
Residual activity (%) ([1]; pH 4 (1 N HCl/1 N NaOH), readjusted to pH 7): 100%
Residual activity (%) ([1]; pH 5 (1 N HCl/1 N NaOH), readjusted to pH 7): 100%
Residual activity (%) ([1]; pH 6 (1 N HCl/1 N NaOH), readjusted to pH 7): 100%
Residual activity (%) ([1]; pH 7 (1 N HCl/1 N NaOH)): 100%
Residual activity (%) ([1]; pH 8 (1 N HCl/1 N NaOH), readjusted to pH 7): 100%
Residual activity (%) ([1]; pH 9 (1 N HCl/1 N NaOH), readjusted to pH 7): 90%
Residual activity (%) ([1]; pH 10 (1 N HCl/1 N NaOH), readjusted to pH 7): 80%
Residual activity (%) (α-amylase): 100%
Residual activity (%) (trypsin): 0%
Residual activity (%) (α-chymotrypsin): 0%
Residual activity (%) (proteinase-K): 0%
Residual activity (%) (pepsin): 100%
Residual activity (%) (lipase): 100%
Residual activity (%) ([2]; heat 4°C/30 min): 100%
Residual activity (%) ([2]; heat 37°C/30 min): 100%
Residual activity (%) ([2]; heat 50°C/30 min): 100%
Residual activity (%) ([2]; heat 80°C/30 min): 100%
Residual activity (%) ([2]; heat 100°C/30 min): 80%
Residual activity (%) ([2]; heat 121°C/15 min): 20%
Residual activity (%) ([3]; Acetone 10% (v/v)): 90%
Residual activity (%) ([3]; Acetonitrile 10% (v/v)): 90%
Residual activity (%) ([3]; Butanol 10% (v/v)): 80%
Residual activity (%) ([3]; Chloroform 10% (v/v)): 80%
Residual activity (%) ([3]; Ethanol 10% (v/v)): 90%
Residual activity (%) ([3]; Methanol 10% (v/v)): 80%
